1 substance from publication PMC3260337 can be followed below.

Experiment [1] addresses AS15[H33R] monobody, displayed on yeast. Put plainly: flow cytometry on cells. Background: Flow cytometry measures light scatter and fluorescence of single cells or particles in a stream.
Experiment [2] has as its target AS27[Y33R] monobody, displayed on yeast. Put plainly: flow cytometry on cells.

Turning to “Abl SH2 domain, biotinylated (for yeast display measurements) (from UniProt P00519 112-232) (domain or fragment)”, in experiment [1], the fold reduction of affinity against AS15 stood at 4 times. In addition, in experiment [2], the fold reduction of affinity against AS27 came out at 8 times.
